Consider 1 protein from article PMC2923267 (Biochemistry, 2010).

The stoichiometry N is a count of units in the complex or per binding partner.

This series deals with the molecule itself. Nature of the series: AUC.

B1: WbpE from Pseudomonas aeruginosa PAO1 (enzyme, UniProt Q9HZ76 1-359, looked up)
chain: MIEFIDLKNQQARIKDKIDAGIQRVLRHGQYILGPEVTELEDRLADFVGAKYCISCANGTDALQIVQMALGVGPGDEVITPGFTYVATAETVALLGAKPVYVDIDPRTYNLDPQLLEAAITPRTKAIIPVSLYGQCADFDAINAIASKYGIPVIEDAAQSFGASYKGKRSCNLSTVACTSFFPSKPLGCYGDGGAIFTNDDELATAIRQIARHGQDRRYHHIRVGVNSRLDTLQAAILLPKLEIFEEEIALRQKVAAEYDLSLKQVGIGTPFIEVNNISVYAQYTVRMDNRESVQASLKAAGVPTAVHYPIPLNKQPAVADEKAKLPVGDKAATQVMSLPMHPYLDTASIKIICAALTN
Regarding B1, the “stoichiometry N” value was found to be 2.
